Assays:
[1] = target: T1, subunit 1 of the type I interferon receptor (IFNAR1), in patients (human, UniProt P17181); experiment: cell-based or functional assay
T1 sequence: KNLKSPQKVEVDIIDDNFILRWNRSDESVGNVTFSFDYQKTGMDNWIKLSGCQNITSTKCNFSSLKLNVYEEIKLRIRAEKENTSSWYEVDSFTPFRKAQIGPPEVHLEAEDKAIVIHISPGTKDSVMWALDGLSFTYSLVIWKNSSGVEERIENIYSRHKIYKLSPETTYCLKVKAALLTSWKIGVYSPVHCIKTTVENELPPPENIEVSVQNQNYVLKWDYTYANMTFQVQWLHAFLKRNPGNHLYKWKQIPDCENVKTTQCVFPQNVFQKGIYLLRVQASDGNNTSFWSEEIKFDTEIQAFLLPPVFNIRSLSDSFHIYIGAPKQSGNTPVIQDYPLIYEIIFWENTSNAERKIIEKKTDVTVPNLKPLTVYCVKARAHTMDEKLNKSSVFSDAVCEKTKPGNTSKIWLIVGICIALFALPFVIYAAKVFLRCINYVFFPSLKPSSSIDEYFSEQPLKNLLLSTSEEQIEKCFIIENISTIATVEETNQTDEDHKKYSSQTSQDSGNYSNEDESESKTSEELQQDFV

[2] = target: T1, subunit 1 of the type I interferon …; experiment: cell-based or functional assay; remark: listed apart in the source

B1: Anifrolumab (antibody, V domains shown)
VH: EVQLVQSGAEVKKPGESLKISCKGSGYIFTNYWIAWVRQMPGKGLESMGIIYPGDSDIRYSPSFQGQVTISADKSITTAYLQWSSLKASDTAMYYCARHDIEGFDYWGRGTLVTVSS
VL: EIVLTQSPGTLSLSPGERATLSCRASQSVSSSFFAWYQQKPGQAPRLLIYGASSRATGIPDRLSGSGSGTDFTLTITRLEPEDFAVYYCQQYDSSAITFGQGTRLEIKR
[1]
  IC50 (nM): anifrolumab concentration required to produce 50% of the maximum inhibition of the 21-IFNGS expression relative to baseline (PK/PD model estimate from TULIP-1 and TULIP-2 data): 6.56 nM
[2]
  IC80: approximate anifrolumab concentration required to produce 80% of the maximum inhibition of the 21-IFNGS expression relative to baseline (PK/PD model estimate): 3.88 µg/mL

From patent US20230365698A1, “ANTI-IFNAR1 DOSING REGIME FOR SUBCUTANEOUS INJECTION” (published 2023)
